Results reported in the supplement of paper PMC10567573.

B1: RHOBTB2 (parent)
chain: NQEITKAFHVRRTNRVKECLAKGT
B2: RHOBTB3 (parent)
chain: VSHVFMLLFNVKSPTDIQDSSIIR

Variants of: B1
Test: protein stability index of a GFP-peptide fusion (GPS, HEK-293T) (PSI 1-6); higher = more stable
Details: c terminus: a fixed tail appended
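Further: lentivirally expressed fusions sorted by FACS into six bins by GFP to DsRed ratio, PSI derived from sequencing read proportions per bin multiplied by bin number.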

Protein stability index, by site and new letter:
C19: A 3.42, D 3.13, E 3.45, F 2.77, G 3.41, H 2.59, I 2.5, K 3.46, M 2.78, N 3.27, P 3.11, Q 3.35, R 2.9, S 2.81, T 3.65, V 3.08, W 2.35, Y 2.33
L20: D 3.98, E 4.03, F 3.44, G 2.97, H 2.84, I 4.41, K 3.83, M 3.59, N 3.27, P 2.39, Q 3.74, R 2.74, S 4.04, T 3.45, V 4.62, W 2.22, Y 2.58
A21: C 1.94, D 3.83, E 3.63, F 2.85, H 2.35, I 2.27, K 3.15, L 2.61, M 2.23, N 3.42, P 3.38, Q 2.65, S 2.48, T 3.73, V 2.8, W 2.28, Y 2.83
K22: A 4.19, C 3.3, D 3.64, E 3.87, F 1.88, H 3.03, I 2.58, L 2.61, M 2.73, N 3.18, P 3.04, Q 3.28, R 3.67, S 3.86, T 3.74, V 2.3, W 2.06
G23: A 2.73, C 2.67, D 2.73, E 3.64, F 2.07, H 2.84, I 2.61, K 4.17, L 2.56, N 3.02, P 3.25, Q 2.99, R 2.82, S 3.11, T 2.66, V 1.75, W 2.61, Y 2.26
T24: A 3.55, C 2.19, D 3.46, F 1.81, G 2.92, H 3.32, I 2.16, K 3.88, L 3.53, M 2.86, N 3.36, P 3.65, R 2.7, S 3.61, V 2.7, W 2.69

Variants of: B2
Test: as above
Details: c terminus: a fixed tail appended

Protein stability index, by site and new letter:
V1: A 2.98, D 2.05, E 2.08, F 2.54, I 3.46, K 1.05, L 1.33, M 3.38, N 1.89, P 3.42, Q 2.22, S 2.88, W 3.32
S2: A 2.55, D 2.44, F 3.6, G 2.58, K 3.57, L 3.13, M 3.95, N 2.84, V 3.75, W 2.82, Y 2.75
H3: D 2.38, E 1.42, G 3.65, L 2.69, M 1.78, P 1.52, Q 2.51, R 2.1, S 2.28, V 3.75, W 3.07
V4: C 4.79, D 2.16, E 1.3, F 4.42, G 2.28, K 1.97, M 2.52, N 1.19, P 2.12, Q 3.13, R 3.04, S 1.89, T 2.54, W 2.46, Y 1.61
F5: A 1.5, C 2.99, D 2.29, E 2.3, G 1.19, H 2.29, I 2.31, K 1.84, L 4.65, M 1.44, N 1.97, P 2.04, Q 1.95, R 1.41, S 1.95, T 1.71, V 3.38, Y 3.79
M6: A 3, C 1.98, D 2.26, E 2.43, F 3.03, G 2.29, H 2.87, I 2.83, K 1.42, L 3.66, N 2.98, P 1.59, Q 2.24, R 1.77, S 2.2, T 2.99, V 3.62, Y 3.18
L7: A 1.74, C 2.94, D 1.93, E 2.13, F 3.17, G 2.25, H 3.82, I 2.99, K 1.59, M 2.37, N 2.25, P 2.18, Q 2.23, R 2.4, S 1.72, T 2.73, V 2.34, W 2.9, Y 2.77
L8: C 2.23, D 1.81, E 1.36, F 2.22, G 2.55, H 2.23, K 2.71, M 2.95, N 2.46, P 2.34, Q 2.75, S 2.78
F9: A 1.92, C 2.44, D 1.45, E 2.21, G 1.69, H 1.63, I 2.62, K 2.21, L 3.21, N 1.93, P 1.55, Q 1.5, R 2.74, S 2.61, T 1.57, W 3.94, Y 4.01
N10: A 2.47, C 1.43, D 3.9, G 2.24, H 3.06, I 2.19, L 3.27, P 2.3, T 2.15, V 2.13, W 3.77
V11: C 3.03, D 1.23, E 2.08, F 2.74, G 3.8, H 3.04, I 3.24, L 4.23, M 3.81, N 3.13, P 2.94, Q 1.82, R 3.03, S 3.03, W 2.83
K12: A 5.33, C 1.55, D 2.5, E 1.8, G 3.36, H 2.15, I 3.28, L 1.46, M 3.63, N 1.99, Q 2.78, R 3.32, T 1.98, V 4.26, W 4.11, Y 1.81
S13: C 4.63, D 2.36, E 2.99, F 3.32, H 2.37, I 4.29, K 2.17, L 3.37, M 3.52, T 3.82, Y 2.31
P14: A 3.26, C 5.86, D 2.34, E 2.14, F 3.75, G 4.07, H 2.54, I 3.62, K 2.58, L 2.04, M 1.72, S 3.49, V 3.52, W 3.15, Y 3.96
T15: C 3.31, F 3.38, G 2.76, I 2.23, K 5.21, L 2.3, N 3.26, R 4.51, S 5.07, V 3.4, W 1.62, Y 2.63
D16: A 2.52, C 2.82, E 2.96, F 1.93, H 3.02, L 2.16, M 3.75, N 3.77, R 3.86, S 2.63, T 2.99, Y 3.61
I17: C 3.7, E 1.9, H 2.01, K 1.51, L 2.92
